Assay results taken from US20260092110A1 (Kyowa Kirin, published 2026).

T1: human MOG (hMOG) expressed on HEK293, Expi293F or L929 cells (human, UniProt Q16653 30-247)
T1 construct: also called hMOG/HEK293; hMOG/HEK293F
T1 chain: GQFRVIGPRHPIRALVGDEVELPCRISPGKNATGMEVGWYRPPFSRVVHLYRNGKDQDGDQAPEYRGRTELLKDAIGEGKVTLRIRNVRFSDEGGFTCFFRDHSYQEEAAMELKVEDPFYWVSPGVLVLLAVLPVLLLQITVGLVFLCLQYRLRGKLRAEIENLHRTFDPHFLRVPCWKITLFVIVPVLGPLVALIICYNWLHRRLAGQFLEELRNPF

B1: AVM IgG4PE(R409K)_MOG01dscFv2 antibody (bispecific antibody)
heavy: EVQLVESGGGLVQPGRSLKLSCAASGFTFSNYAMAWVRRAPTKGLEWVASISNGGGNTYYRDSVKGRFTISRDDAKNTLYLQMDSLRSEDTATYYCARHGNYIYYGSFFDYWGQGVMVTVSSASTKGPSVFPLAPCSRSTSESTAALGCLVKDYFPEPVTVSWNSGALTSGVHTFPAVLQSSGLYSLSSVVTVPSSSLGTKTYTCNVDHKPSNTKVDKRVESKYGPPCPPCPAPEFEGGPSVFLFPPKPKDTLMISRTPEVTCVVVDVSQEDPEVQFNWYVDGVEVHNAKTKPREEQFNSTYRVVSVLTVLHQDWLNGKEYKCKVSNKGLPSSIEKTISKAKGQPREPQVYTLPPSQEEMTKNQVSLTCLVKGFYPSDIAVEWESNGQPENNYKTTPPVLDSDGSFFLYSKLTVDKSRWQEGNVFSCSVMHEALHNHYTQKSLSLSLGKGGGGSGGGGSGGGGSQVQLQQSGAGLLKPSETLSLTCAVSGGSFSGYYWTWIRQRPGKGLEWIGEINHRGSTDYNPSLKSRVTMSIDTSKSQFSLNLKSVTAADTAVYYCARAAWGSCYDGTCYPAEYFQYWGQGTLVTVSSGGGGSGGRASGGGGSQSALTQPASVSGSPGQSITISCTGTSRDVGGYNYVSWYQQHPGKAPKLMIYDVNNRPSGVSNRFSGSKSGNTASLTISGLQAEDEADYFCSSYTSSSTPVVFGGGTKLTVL
light: QFVLSQPNSVSTNLGSTVKLSCKRSTGNIGSNYVSWYQQHEGRSPTTMIYRDDKRPDGVPDRFSGSIDRSSDSALLTINNVQTEDEADYFCQSYSSGINIFGGGTKLTVLGQPKAAPSVTLFPPSSEELQANKATLVCLISDFYPGAVTVAWKADSSPVKAGVETTTPSKQSNNKYAASSYLSLTPEQWKSHRSYSCQVTHEGSTVEKTVAPTECS
notes: also called pCI-AVM-hLG4PE(R409K)_MOG01scFv2
B2: AVM IgG4PE(R409K)_MOG01dscFv4 antibody (bispecific antibody)
heavy: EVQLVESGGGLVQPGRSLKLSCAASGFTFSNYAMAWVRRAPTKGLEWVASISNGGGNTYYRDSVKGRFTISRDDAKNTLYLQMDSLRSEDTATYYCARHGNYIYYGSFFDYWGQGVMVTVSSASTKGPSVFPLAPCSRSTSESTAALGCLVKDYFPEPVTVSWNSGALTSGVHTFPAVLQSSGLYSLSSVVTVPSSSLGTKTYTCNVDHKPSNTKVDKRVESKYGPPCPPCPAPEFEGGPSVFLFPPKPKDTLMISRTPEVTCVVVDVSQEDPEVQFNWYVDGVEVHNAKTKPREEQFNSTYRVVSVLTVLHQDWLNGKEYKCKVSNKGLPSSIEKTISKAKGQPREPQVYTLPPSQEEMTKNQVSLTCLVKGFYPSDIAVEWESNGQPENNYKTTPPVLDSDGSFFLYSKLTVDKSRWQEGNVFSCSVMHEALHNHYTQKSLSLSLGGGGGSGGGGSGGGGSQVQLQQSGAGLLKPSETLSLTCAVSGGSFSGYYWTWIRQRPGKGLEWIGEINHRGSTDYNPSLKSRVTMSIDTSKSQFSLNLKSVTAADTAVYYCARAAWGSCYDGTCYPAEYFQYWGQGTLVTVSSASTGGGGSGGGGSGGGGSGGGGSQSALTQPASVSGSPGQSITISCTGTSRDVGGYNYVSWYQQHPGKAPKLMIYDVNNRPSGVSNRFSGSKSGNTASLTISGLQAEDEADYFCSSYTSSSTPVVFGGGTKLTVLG
light: QFVLSQPNSVSTNLGSTVKLSCKRSTGNIGSNYVSWYQQHEGRSPTTMIYRDDKRPDGVPDRFSGSIDRSSDSALLTINNVQTEDEADYFCQSYSSGINIFGGGTKLTVLGQPKAAPSVTLFPPSSEELQANKATLVCLISDFYPGAVTVAWKADSSPVKAGVETTTPSKQSNNKYAASSYLSLTPEQWKSHRSYSCQVTHEGSTVEKTVAPTECS
notes: also called pCI-AVM-hLG4PE(R409K)_MOG01scFv4
B3: AVM IgG4PE(R409K)_MOG01dscFv8 antibody (bispecific antibody)
heavy: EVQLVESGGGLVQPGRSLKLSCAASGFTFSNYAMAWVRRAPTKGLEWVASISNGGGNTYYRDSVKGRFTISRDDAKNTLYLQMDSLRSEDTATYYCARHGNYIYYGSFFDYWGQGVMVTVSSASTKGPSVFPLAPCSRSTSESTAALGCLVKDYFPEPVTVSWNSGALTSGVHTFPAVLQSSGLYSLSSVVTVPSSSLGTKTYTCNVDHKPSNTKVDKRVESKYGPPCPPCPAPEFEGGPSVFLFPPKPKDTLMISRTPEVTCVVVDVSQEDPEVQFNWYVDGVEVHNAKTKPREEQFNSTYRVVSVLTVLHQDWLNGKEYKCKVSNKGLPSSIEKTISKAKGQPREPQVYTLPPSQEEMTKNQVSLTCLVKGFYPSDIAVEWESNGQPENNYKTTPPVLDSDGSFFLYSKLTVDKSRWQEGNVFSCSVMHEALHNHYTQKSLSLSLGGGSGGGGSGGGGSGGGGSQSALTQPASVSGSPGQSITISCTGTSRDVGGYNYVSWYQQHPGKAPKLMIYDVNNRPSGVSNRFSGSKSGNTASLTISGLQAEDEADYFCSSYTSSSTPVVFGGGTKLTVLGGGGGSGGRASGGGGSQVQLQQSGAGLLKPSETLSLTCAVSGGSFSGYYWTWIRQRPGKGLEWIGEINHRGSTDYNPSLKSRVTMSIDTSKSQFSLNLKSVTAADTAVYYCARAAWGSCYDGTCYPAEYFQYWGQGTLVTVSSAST
light: QFVLSQPNSVSTNLGSTVKLSCKRSTGNIGSNYVSWYQQHEGRSPTTMIYRDDKRPDGVPDRFSGSIDRSSDSALLTINNVQTEDEADYFCQSYSSGINIFGGGTKLTVLGQPKAAPSVTLFPPSSEELQANKATLVCLISDFYPGAVTVAWKADSSPVKAGVETTTPSKQSNNKYAASSYLSLTPEQWKSHRSYSCQVTHEGSTVEKTVAPTECS
notes: also called pCI-AVM-hLG4PE(R409K)_MOG01scFv8
B4: AVM IgG4PE(R409K)_MOG01dscFv9 antibody (bispecific antibody)
heavy: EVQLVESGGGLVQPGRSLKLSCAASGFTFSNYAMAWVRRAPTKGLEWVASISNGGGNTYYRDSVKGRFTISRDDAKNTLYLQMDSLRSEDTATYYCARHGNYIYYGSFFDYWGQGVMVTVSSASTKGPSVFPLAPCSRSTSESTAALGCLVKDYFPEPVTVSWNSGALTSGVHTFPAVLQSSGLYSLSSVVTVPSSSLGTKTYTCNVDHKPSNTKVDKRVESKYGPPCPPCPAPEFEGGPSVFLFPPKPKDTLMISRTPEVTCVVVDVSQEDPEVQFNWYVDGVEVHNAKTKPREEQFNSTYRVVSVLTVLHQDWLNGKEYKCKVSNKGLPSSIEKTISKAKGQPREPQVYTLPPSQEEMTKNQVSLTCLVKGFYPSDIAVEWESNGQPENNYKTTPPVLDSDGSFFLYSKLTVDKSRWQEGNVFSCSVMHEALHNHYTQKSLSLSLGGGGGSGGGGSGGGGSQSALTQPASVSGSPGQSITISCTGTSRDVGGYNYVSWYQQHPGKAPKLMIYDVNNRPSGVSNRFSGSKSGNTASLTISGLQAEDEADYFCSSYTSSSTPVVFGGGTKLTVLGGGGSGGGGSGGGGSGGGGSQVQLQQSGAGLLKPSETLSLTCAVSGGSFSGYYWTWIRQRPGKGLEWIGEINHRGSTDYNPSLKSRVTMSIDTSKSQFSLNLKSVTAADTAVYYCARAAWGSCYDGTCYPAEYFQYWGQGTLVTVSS
light: QFVLSQPNSVSTNLGSTVKLSCKRSTGNIGSNYVSWYQQHEGRSPTTMIYRDDKRPDGVPDRFSGSIDRSSDSALLTINNVQTEDEADYFCQSYSSGINIFGGGTKLTVLGQPKAAPSVTLFPPSSEELQANKATLVCLISDFYPGAVTVAWKADSSPVKAGVETTTPSKQSNNKYAASSYLSLTPEQWKSHRSYSCQVTHEGSTVEKTVAPTECS
notes: also called pCI-AVM-hLG4PE(R409K)_MOG01scFv9
B5: AVM IgG4PE(R409K)_MOG01dscFv10 antibody (bispecific antibody)
heavy: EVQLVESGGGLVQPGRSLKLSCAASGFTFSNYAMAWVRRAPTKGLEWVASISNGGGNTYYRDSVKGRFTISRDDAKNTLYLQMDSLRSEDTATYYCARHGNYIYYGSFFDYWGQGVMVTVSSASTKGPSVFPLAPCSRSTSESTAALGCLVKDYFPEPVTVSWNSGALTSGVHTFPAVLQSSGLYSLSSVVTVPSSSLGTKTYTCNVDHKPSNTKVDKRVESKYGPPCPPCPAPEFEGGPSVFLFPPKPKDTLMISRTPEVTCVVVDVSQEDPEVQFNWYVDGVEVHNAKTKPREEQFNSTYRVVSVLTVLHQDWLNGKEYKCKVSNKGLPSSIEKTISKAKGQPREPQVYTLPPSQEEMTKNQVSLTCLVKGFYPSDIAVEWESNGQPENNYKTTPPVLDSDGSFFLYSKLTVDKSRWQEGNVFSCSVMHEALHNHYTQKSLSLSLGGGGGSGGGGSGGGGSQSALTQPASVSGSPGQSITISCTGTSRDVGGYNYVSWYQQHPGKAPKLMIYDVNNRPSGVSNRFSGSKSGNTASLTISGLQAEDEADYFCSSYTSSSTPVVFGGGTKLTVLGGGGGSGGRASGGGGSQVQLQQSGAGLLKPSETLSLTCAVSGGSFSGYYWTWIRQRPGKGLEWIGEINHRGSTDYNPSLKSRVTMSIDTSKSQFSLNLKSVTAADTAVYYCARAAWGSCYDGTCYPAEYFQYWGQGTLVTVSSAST
light: QFVLSQPNSVSTNLGSTVKLSCKRSTGNIGSNYVSWYQQHEGRSPTTMIYRDDKRPDGVPDRFSGSIDRSSDSALLTINNVQTEDEADYFCQSYSSGINIFGGGTKLTVLGQPKAAPSVTLFPPSSEELQANKATLVCLISDFYPGAVTVAWKADSSPVKAGVETTTPSKQSNNKYAASSYLSLTPEQWKSHRSYSCQVTHEGSTVEKTVAPTECS
notes: also called AVM IgG4PE(R409K)_MOG01dscFvlO antibody; pCI-AVM-hLG4PE(R409K)_MOG01scFv10
B6: MOG329 antibody (anti-MOG scFv displayed on phage, pCANTAB_MOG329) (scFv)
scFv: QVQLVESGGGLVQPGGSLRLSCAASGFAFRNYAMNWVRQAPGKGLEWVSAISGSGGSTYYADSVKGRFTISRDNSKNTLYLQMNSLRAEDTAVYYCARDYGGISPFDYWGQGTLVTVSSGGGGSGGRASGGGGSDIQLTQSPSSLSASVGDRVTITCRASQGISSALAWYQQKPGKAPKLLIYDASSLESGVPSRFSGSGSGTDFTLTISSLQPEDFATYYCQQFNSYPHTFGQGTKVDIK
B7: MOG456 antibody (anti-MOG scFv displayed on phage, pCANTAB_MOG456) (scFv)
scFv: EVQLVESGGGLVKPGGSLRLSCAASGFTFSSYSMHWVRQAPGKGLEWVSSIGSRSRYIYYADSVKGRFTISRDNAKNSLYLQMNSLRAEDTAVYYCAKGYYDILTGSLFDYWGQGTLVTVSSGGGGSGGRASGGGGSDIVMTQSPSSLSASVGDRVTITCRASQGISSALAWYQQKPGKAPKLLIYDASSLESGVPSRFSGSGSGTDFTLTISSLQPEDFATYYCQQFNSYPWTFGQGTKVEIK
B8: MOG426 (scFv phage clone similar to MOG301 antibody) (scFv)
scFv: QVQLVQSGAEVKKPGASVKVSCKASGYSFNSYGINWVRQAPGQGLEWMGWISAYTGKTSYAQKVQGRVTMTTDRSTSTAYMELRSLRSDDTAMYYCAREYDILTGYSDAFDTWGQGTMVTVSSGGGGSGGRASGGGGSEIVLTQSPATLSLSPGERATLSCRASQSVSSYLAWYQQKPGQAPRLLIYDASNRATGIPARFSGSGSGTDFTLTISSLEPEDFAVYYCQQRGNWPLTFGGGTKLEIK
B9: MOG314 (scFv phage clone similar to MOG303 antibody) (scFv)
scFv: QVQLVESGGGLVQPGGSLRLSCAASGFTFSSYAMSWVRQAPGKGLEWVSAISGRGSSTYYADSVKGRFTISRDNSKNTLYLQMNSLRAEDTAVYYCAKGYYDILTGSFFDYWGQGTLVTVSSGGGGSGGRASGGGGSDIQLTQSPSSLSASVGDRVTITCRASQGISSALAWYQQKPGKAPKLLIYDASSLESGVPSRFSGSGSGTDFTLTISSLQPEDFATYYCQQFNSYPYTFGQGTKLEIK
B10: MOG315 (scFv phage clone similar to MOG303 antibody) (scFv)
scFv: EVQLVESGGGLVQPGGSLRLSCAASGFTFSTYAMSWVRQAPGKGLEWVSAISGSGVSTYYADSVKGRFTLSRDNSKNTLYLQMNSLRAEDTAVYYCAKAYYDILTGNFLDYWGQGTLVTVSSGGGGSGGRASGGGGSAIQLTQSPSSLSASVGDRVTITCRASQGISSALAWYQQKPGKAPKLLIYDASSLESGVPSRFSGSGSGTDFTLTISSLQPEDFATYYCQQFNSYPLTFGGGTKVEIK
B11: MOG476 (scFv phage clone similar to MOG303 antibody) (scFv)
scFv: EVQLVESGGGLVQPGGSLRLSCAASGFTFSSYAMNWVRQAPGKGLEWVSAISYSGRSTYYADSVKGRFTISRDNSKNTLYLQMNSLRAEDTAVYYCAKGLYDILTGGGFDYWGQGTLVTVSSGGGGSGGRASGGGGSDIQMTQSPSSLSASVGDRVTITCRASQGISSALAWYQQKPGKAPKLLIYDASSLESGVPSRFSGSGSGTDFTLTISSLQPEDFATYYCQQFNSYPSTFGQGTRLEIK
B12: MOG357 (scFv phage clone similar to MOG303 antibody) (scFv)
scFv: EVQLVETGGGLVQPGGSLRLSCAASGFTFSSYAMSWVRQAPGKGLEWVSDINHSGGSTYYADSVKGRFTISRDNSKHTLYLQMNSLRAEDTAVYYCAKDYYDILTGSFFDYWGQGTLVTVSSGGGGSGGRASGGGGSDIVMTQSPSSLSASVGDRVTITCRASQGISSALAWYQQKPGKAPKLLIYDASSLESGVPSRFSGSGSGTDFTLTISSLQPEDFATYYCQQFNSYPWTFGQGTKVEIK
B13: MOG308 (scFv phage clone similar to MOG310 antibody) (scFv)
scFv: EVQLVQSGAEVRKSGSSVKVSCKASGGTFSRYAISWVRQAPGQGLEWMGGIIPMFSTTNYAQKFQGRVTITADESTSTAYMELSSLRSEDTAVYYCARDWAVAGMGFAYWGQGTLVTVSSGGGGSGGRASGGGGSEIVMTQSPATLSLSPGERATLSCRASQSVSSYLAWYQQKPGQAPRLLIYDASNRATGIPARFSGSGSGTDFTLTISSLEPEDFAVYYCQQRSNWPPTFGQGTKVDIK
B14: MOG316 (scFv phage clone similar to MOG310 antibody) (scFv)
scFv: EVQLVQSGAEVKKPGSSVKVSCKASGGTFSRYAISWVRQAPGQGLEWMGGIIPMFNTANYAQKFQGRVTITADESTSTAYMELSSLRSEDTAVYYCARDWAVAGMGFNYWGQGTLVTVSSGGGGSGGRASGGGGSDIQMTQSPSSLSASVGDRVTITCRASQGINSALAWYQQKPGKAPKLLIYAASSLQSGVPSRFSGSGSGTDFTLTISSLQPEDFATYYCQQYNSYPITFGQGTRLEIK
B15: MOG338 (scFv phage clone similar to MOG310 antibody) (scFv)
scFv: QVQLVQSGAEVKKPGSSVKVSCKASGGTFSRYAISWVRQAPGQGLEWMGGIIPMFNTANYAQKFQGRVTITADESTSTAYMELSSLRSEDTAVYYCARDWAVAGMGFDPWGQGTLVTVSSGGGGSGGRASGGGGSEIVLTQSPATLSLSPGERATLSCRASQSVSSYLAWYQQKPGQAPRLLIYDASNRATGIPARFSGSGSGTDFTLTISSLEPEDFAVYYCQQRNNWPLTFGGGTKLEIK
B16: MOG352 (scFv phage clone similar to MOG310 antibody) (scFv)
scFv: EVQLVQSGAEVKKPGSSVKVSCKASGGTFSRYAINWVRQAPGQGLEWMGGIIPMFSTVNYAQKFQGRVTITADESTSTAYMELSSLRSEDTAVYYCARDWAVAGMGFDYWGQGTLVTVSSGGGGSGGRASGGGGSAIQMTQSPSSVSASVGDRVTITCRASQGISSWLAWYQHKPGKAPKSLIYAASSLQSGVPSRFSGSGSGTDFTLTISSLQPEDFATYYCQQYNSYPLTFGGGTKVDIK
B17: MOG470 (scFv phage clone similar to MOG329 antibody) (scFv)
scFv: QVQLVESGGGLVQPGGSLRLSCAASGFTFSSYAMNWVRQAPGKGLEWVSAISGSGGSTYYADSVKGRFTISRDNSKNTLYLQVNSLRAEDTAVYYCARDYGGISPFDYWGQGTLVTVSSGGGGSGGRASGGGGSEIVMTQSPATLSLSPGERATLSCRASQSVSSYLAWYQQKPGQAPRLLIYDASNRATGIPARFSGSGSGTDFTLTISRLEPEDFAVYYCQQYGSSPYTFGQGTRLEIK

What was measured:
[1] = biological target: T1, human MOG (hMOG) expressed on HEK293, …; assay: flow cytometry on L929 cells expressing human MOG (hMOG/L929); antibody titrated, RPE-labelled goat anti-human antibody
From the text: pEF6_hMOG obtained in Example 5 was introduced to mouse connective tissue-derived fibroblast L929 cells [American Type Culture Collection (ATCC) No.: CCL-1] using HilyMax (manufactured by Dojindo Laboratories). The gene-transfected cells were selected using an antibiotic substance, Blasticidin (manufactured by Invitrogen) and then cloned by the limiting dilution method. Using the L929 cells expressing hMOG on the cell surface (abbreviated as hMOG/L929 below), the reactivities of the bispecific antibodies were analyzed by the method described below.
The hMOG/L929 cells were suspended in a Staining Buffer (SB) of PBS containing 0.1% NaN₃ and 1% FBS and dispensed to a round-bottom 96-well plate (manufactured by Becton Dickinson). […] After suspending the pellets, the plate was left to stand at ice temperature for 30 minutes. The supernatants were removed after further centrifugation (2000 rpm, 4° C., two minutes), and the pellets were washed with SB. Then, 1 μg/mL RPE fluorescently labeled goat anti-human antibody (manufactured by Southern Biotech) was added, and the plate was incubated at ice temperature for 30 minutes. After washing with SB, the cells were suspended in SB, and the fluorescence intensities of the cells were measured with a flow cytometer FACS CANTO II (manufactured by Becton Dickinson). The results are shown in FIGS. 12A to 12C and FIGS. 13A and 13B.

[2] = biological target: T1, human MOG (hMOG) expressed on HEK293, …; assay: phage clone on hMOG/Expi293F cells
[3] = biological target: extracellular domain protein of human MOG to which FLAG-Fc is added at the C-terminus (hMOG-FLAG-Fc) (human); assay: phage ELISA

Row | Binder | binding result [1] | binding result [2] | binding result [3]
1 | B1 | binds | – | –
2 | B2 | binds | – | –
3 | B3 | binds | – | –
4 | B4 | binds | – | –
5 | B5 | binds | – | –
6 | B6 | – | binds | binds
7 | B7 | – | binds | binds
8 | B8 | – | binds | binds
9 | B9 | – | binds | binds
10 | B10 | – | binds | binds
11 | B11 | – | binds | binds
12 | B12 | – | binds | binds
13 | B13 | – | binds | binds
14 | B14 | – | binds | binds
15 | B15 | – | binds | binds
16 | B16 | – | binds | binds
17 | B17 | – | binds | binds
